{
  "source": "patent US11466067B2",
  "about": "(priority 2019, dated 2022)",
  "molecules": {"B1": {"name": "IL-10 delivery construct: recombinant homodimeric fusion protein: N-terminal methionine, cholix386 domain, polyGlySer spacer, recombinant human IL-10 (protein)", "chain": "MVEEALNIFDECRSPCSLTPEPGKPIQSKLSIPSDVVLDEGVLYYSMTINDEQNDIKDEDKGESIITIGEFATVRATRHYVNQDAPFGVIHLDITTENGTKTYSYNRKEGEFAINWLVPIGEDSPASIKISVDELDQQRNIIEVPKLYSIDLDNQTLEQWKTQGNVSFSVTRPEHNIAISWPSVSYKAAQKEGSRHKRWAHWHTGLALCWLVPMDAIYNYITQQNCTLGDNWFGGSYETVAGTPKVITVKQGIEQKPVEQRIHFSKGNAMSALAAHRVCGVPLETLARSRKPRDLTDDLSCAYQAQNIVSLFVATRILFSHLDSVFTLNLDEQEPEVAERLSDLRRINENNPGMVTQVLTVARQIYNDYVTHHPGLTPEQTSAGAQAGGGGSGGGGSGGGGSPGQGTQSENSCTHFPGNLPNMLRDLRDAFSRVKTFFQMKDQLDNLLLKESLLEDFKGYLGCQALSEMIQFYLEEVMPQAENQDPDIKAHVNSLGENLKTLRLRLRRCHRFLPCENKSKAVEQVKNAFNKLQEKGIYKAMSEFDIFINYIEAYMTMKIRN", "modifications": "homodimer"}},
  "key": {"[1]": {"system": "STAT3, IL-1Ra", "assay": "pSTAT3/STAT3 and systemic IL-1Ra in non-inflamed mice (ELISA MSD)", "assay_type": "in vivo"}, "[2]": {"details": "0.3 mg/mL, 5 h"}, "[3]": {"system": "IFNγ, IL-1β, IL-2, IL-6, IL-8, TNFα", "assay": "Single oral capsule dose in NHP: plasma proinflammatory cytokines", "assay_type": "in vivo, Macaca fascicularis", "procedure": "The panel of cytokines (IFNγ, IL-1β, IL-2, IL-6, and IL-8) was evaluated using a multiplex kit available from MSD. The assays in this panel were sandwich immunoassays. The MSD plate came precoated with capture antibodies on independent and pre-defined spots, and samples were quantitated against an 8-point standard curve prepared using a mixture of the cytokines (Proinflammatory Panel 1 (human) Calibrator Blend) from MSD. The standards included 0 pg/mL and these concentration ranges: IFNγ (0.37-1500 pg/mL), IL-1β (0.14-589 pg/mL), IL-2 (0.36-1490 pg/mL), IL-6 (0.18-721 pg/mL) and IL-8 (0.14-553 pg/mL).\nThe MSD plate (pre-coated with capture antibodies) was washed 3 times with PBST before use. Standards were prepared in Diluent 2 (MSD Cat No R51BB) and test samples diluted 2 fold in Diluent 2. Standards and diluted samples were added to the assay plate, and the plate incubated for 2 hours at room temperature with shaking. The plate was washed 3 times with PBST, and a mixture of 1×SULFO TAG detection antibodies added to the plate. The plate was incubated for 2 hours at room temperature with shaking. Following a wash step, 2×MSD Read buffer was added to the wells of the plate, and the plate read using the MSD Sector Imager 600 plate reader. The lower limit of detection of each analyte was defined as 2.5 standard deviation above background.\nThe purpose of the TNFα immunoassay was to quantify NHP TNFα concentration in plasma. The antibody pair in this immunoassay reacted with both human and NHP TNFα. Samples were quantitated using an 8-point standard curve prepared from a human TNFα calibrator that ranges in concentration from 5.6-4052 pg/mL and includes 0 pg/mL.\nThe biotinylated anti-NHP TNFα capture antibody was added to a MSD Small Spot Streptavidin plate and incubated for an hour at RT with shaking. Controls were prepared in pooled plasma, standards in Diluent 43 (MSD Cat No R50AG), and test samples were diluted 2 fold in Diluent 43. […] Following a wash step, 2×MSD Read buffer was added to the wells of the plate, and the plate read using the MSD Sector Imager 600 plate reader. […]"}, "[4]": {"system": "ulcerative colitis", "assay": "Phase 1b multiple ascending dose in patients with active UC", "assay_type": "in vivo, human", "procedure": "Data was gathered on the safety, tolerability, pharmacokinetics, pharmacodynamics, and initial clinical response following a multiple ascending dose (MAD) of the IL-10 delivery construct in adult patients with active UC over 14 days of treatment. […] A coating with a weight ratio of 50:50 of Eudragit® L30D55: Eudragit® FS30D was applied with a thickness of 14.8 to 16.0 mg/cm^2 and a weight of approximately 76 mg to each capsule. Placebo capsules were generated using similarly coated empty capsules.\nA total of four cohorts were dosed with either 1 mg, 3 mg, 10, mg or 30 mg of the IL-10 delivery construct, randomized 3:1 to receive the IL-10 delivery construct or a placebo administered once daily for fourteen days. The goal of the trial was to assess the safety of the IL-10 delivery construct and any change in UC disease activity, through endoscopy, histology, biomarkers, and serum samples. Stool samples and colonic biopsies were obtained at baseline and day 14 of treatment to assess fecal calprotectin as well as histology based upon blinded central read of the Geboes scoring system. Fecal calprotectin is an objective marker of clinical response in UC studies and the Geboes scoring system is a measure of histological response. The Geboes scoring system of this example used a 0-22 point histologic scoring system in which higher scores represent more severe disease."}, "[5]": {"assay": "Intraluminal injection in T-cell transfer colitis model, rhIL-10 ELISA", "assay_type": "in vivo, BALB/c and SCID mice", "procedure": "This study was conducted to examine the potential for the carrier protein to transport rhIL-10 from the intestinal lumen into the submucosal region in inflamed intestinal tissue. The T lymphocyte (T cell) transfer model was used as it is a well-established model of induced chronic colitis in mice and presents many of the essential immunological hallmarks observed in IBD patients. Nine BALB/c mice and twelve SCID mice, including nine with the colitis-like model of inflammation, were dosed with 20 μl of test article via intraluminal injection into the distal ileum and the proximal, middle and distal colon.\nPBS vehicle was administered to healthy BALB/c mice and both healthy and induced colitis SCID mice (n=3/group). In each group, two mice were terminated 10 minutes after intraluminal injections, and one was terminated 40 minutes after intraluminal injections. Intestinal tissue and serum were collected. Collected tissue was fixed, embedded, sectioned and H&E stained for histological assessment of inflammatory status. ELISA analysis to measure rhIL 10 was performed on lysates prepared from intestinal tissue and serum (FIGS. 106A-106D)."}, "[6]": {"assay": "Process trains with S-650F cation exchange: yield, recovery, purity, endotoxin", "procedure": "Refolding was carried out at 4° C. in a refolding solution containing 1 mM reduced glutathione, 0.5 mM oxidized glutathione, 1M Arginine-HCl, 250 mM sucrose, 100 mM Tris pH 8.5 at 4° C., and 2 mM EDTA. […] Buffer A for the CHT bind/elute step in Table 56 may also comprise 25 mM Tris, pH7.5, 300 mM NaCl, 5.0 mM NaPi, 0.5 mM CaCl2. Columns used are described in Table 58.\nThe yield, recovery, and purity of the IL-10 delivery construct was assess after each step, and after each process train."}, "[7]": {"details": "Control process train: Capto Q, CHT (Linear elution), based on historical data"}, "[8]": {"details": "PT1: Capto Q, S-650F, CHT (FT mode)"}, "[9]": {"details": "PT2: Capto Q, CHT (Step elution), S-650F"}, "[10]": {"details": "PT3: S-650F, Capto Q, CHT (FT mode)"}},
  "data": [
    {"molecule": "B1", "values": [
      {"measurement": "increase in ratio of pSTAT3 to total STAT3", "setting": "[1]; construct 1 mg/kg, rhIL-10 0.9 mg/kg (equimolar), non-inflamed colon tissue", "result": "approximately 50%"},
      {"measurement": "increase of systemic IL-1Ra", "setting": "[1]; construct 10 mg/kg, rhIL-10 3 mg/kg (equimolar)", "result": "about 3 fold"},
      {"measurement": "solution stability in PBS at 37 °C", "setting": "[2]", "result": "significant degradation"},
      {"measurement": "solution stability in PBS at RT", "setting": "[2]", "result": "stable"},
      {"measurement": "plasma IFNγ, IL-1β, IL-2, IL-8, IL-6", "setting": "[3]; 1-82 mg oral capsules", "result": "not associated with any consistent trends"},
      {"measurement": "plasma TNFα", "setting": "[3]; all samples below limit of detection", "result": "no induction"},
      {"measurement": "plasma IL-1Ra and IFN-γ after oral enteric-coated capsules", "setting": "[3]; compared with intravenous administration", "result": "increased IL-1Ra without significant induction of IFN-γ"},
      {"measurement": "FCP activity at higher doses", "setting": "[4]; 10 mg and 30 mg", "result": "diminution of activity"},
      {"measurement": "Geboes score of one UC patient, pre-dose to post-treatment", "setting": "[4]; 10 mg, 14 days, 22 point scale", "result": "improved from a score of 15 to a score of three"},
      {"measurement": "tolerability in patients with UC", "setting": "[4]; 1-30 mg once daily, 14 days", "result": "well tolerated"},
      {"measurement": "CRP levels vs placebo", "setting": "[4]; 1 and 3 mgs, baseline CRP greater than 5 mg/L", "result": "greater reductions in CRP levels"},
      {"measurement": "patients with reduced Geboes score", "setting": "[4]; 14 days, active patients", "result": 60, "unit": "%"},
      {"measurement": "TEAEs in the 12 active patients", "setting": "[4]; human, in vivo", "result": 20},
      {"measurement": "rhIL-10 in serum of healthy animals", "setting": "[5]; 159 pmoles intraluminal", "result": "moderately high"},
      {"measurement": "rhIL-10 in serum of inflamed animals", "setting": "[5]; 159 pmoles intraluminal", "result": "minimal amounts"},
      {"measurement": "rhIL-10 levels in inflamed tissue vs rhIL-10 alone", "setting": "[5]; 159 pmoles, 10 minutes", "result": "approximately 10 fold higher"},
      {"measurement": "rhIL-10 uptake in normal intestinal tissues vs rhIL-10 alone", "setting": "[5]; 159 pmoles, 10 minutes", "result": "two- to five-fold higher"},
      {"measurement": "Endotoxin", "setting": "[6]; [7]", "result": "*8 EU/mg"},
      {"measurement": "Purity", "setting": "[6]; [7]", "result": "*85%"},
      {"measurement": "Yield", "setting": "[6]; Control: Capto Q ImpRes, CHT gradient B/E", "result": 68, "unit": "mg"},
      {"measurement": "Endotoxin", "setting": "[6]; [8]", "result": 8.9, "unit": "EU/mg"},
      {"measurement": "Purity", "setting": "[6]; [8]", "result": 92, "unit": "%"},
      {"measurement": "Yield", "setting": "[6]; PT2: Capto Q ImpRes, CHT step B/E 80 mM NaPi, S-650F", "result": 26, "unit": "mg"},
      {"measurement": "Endotoxin", "setting": "[6]; [9]", "result": 5, "unit": "EU/mg"},
      {"measurement": "Purity", "setting": "[6]; [9]", "result": 91, "unit": "%"},
      {"measurement": "Endotoxin", "setting": "[6]; [10]", "result": 0.4, "unit": "EU/mg"},
      {"measurement": "Purity", "setting": "[6]; [10]", "result": 96, "unit": "%"}
    ]}
  ]
}
